# Test results reported in US20140308283A1 (TORAY INDUSTRIES, published 2014).
# T1: CAPRIN-1 protein expressed on the cell membrane surface of human cancer cell lines (human, UniProt Q14444 2-709)
# T1 construct: whole, on cells; also called human CAPRIN-1; Cytoplasmic- and proliferation-associated protein 1
# T1 sequence (looked up): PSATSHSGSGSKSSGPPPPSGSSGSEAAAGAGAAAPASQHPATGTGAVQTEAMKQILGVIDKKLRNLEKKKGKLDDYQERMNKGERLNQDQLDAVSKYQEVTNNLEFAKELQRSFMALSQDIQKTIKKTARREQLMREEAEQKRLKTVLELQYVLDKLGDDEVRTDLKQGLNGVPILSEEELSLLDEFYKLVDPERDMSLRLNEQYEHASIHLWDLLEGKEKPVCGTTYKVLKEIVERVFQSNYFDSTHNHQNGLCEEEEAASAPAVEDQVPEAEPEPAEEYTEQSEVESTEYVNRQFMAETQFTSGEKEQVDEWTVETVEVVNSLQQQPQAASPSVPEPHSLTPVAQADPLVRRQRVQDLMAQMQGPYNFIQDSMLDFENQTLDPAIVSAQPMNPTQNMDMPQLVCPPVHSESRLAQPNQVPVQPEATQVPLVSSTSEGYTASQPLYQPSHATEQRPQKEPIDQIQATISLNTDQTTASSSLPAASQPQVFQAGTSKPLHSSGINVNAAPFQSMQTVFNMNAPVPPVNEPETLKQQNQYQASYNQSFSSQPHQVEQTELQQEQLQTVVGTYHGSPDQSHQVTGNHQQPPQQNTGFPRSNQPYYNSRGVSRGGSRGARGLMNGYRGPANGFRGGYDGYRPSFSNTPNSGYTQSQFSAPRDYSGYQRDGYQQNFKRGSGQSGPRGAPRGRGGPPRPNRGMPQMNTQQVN
# B1: mouse monoclonal antibody #6 (antibody)
# chain 1: DAELVKPGASVKISCKASGYTFTDHSIHWVQQKPEQGLEWIGYISPGNGNIKYNEKFKGKATLTADKSSSTAYMQLNSLTSEDSAVYFCKRSLGRGGPYYFDYWGQGTTVTVSS
# chain 2: DIVLTQAAPSLPVTPGESVSISCRSSKSLLHSNGNTYLYWFLQRPGQSPQLLIYRMSNLASGVPDRFSGSGSGTAFTLRISRVEAEDVGVYYCMQHREYPVTFGSGPN
# B2: mouse monoclonal antibody #8 (antibody, V domains shown)
# VH: GGGLVKPGGSLKLSCAASGFAFSSYDMSWIRQTPEKRLEWVAYISSGAGSTYYPDTVKGRFTVSRDNAKNTLYLQMSSLKSEDTAMYYCARHFYRFDYWGQGTTVTVSS
# VL: SIVMTQTPKFLLVSAGDRITITCKASQSVSNDVAWYQQKPGQSPKLLIYYASNRYTGVPDRFTGSGYGTDFTFTISTVQAEDLAVYFCQQDDRFPLTFGAGPS
# notes: Mouse hybridoma antibody; also called anti-CAPRIN-1 mouse monoclonal antibody #8
# B3: mouse monoclonal antibody #12 (antibody, V domains shown)
# VH: EVQLHQFGAELVKPGASVKISCKASGYTFTDYNMDWVKQSHGKSLEWIGDINPNYDSTSYNQKFKGKATLTVDKSSSTAYMELRSLTSEDTAVYYCARSRSYDYEGFAYWGQGTLVTVSA
# VL: DIQMTQSPASLSASVGETVTITCRASGNIHNYLAWYQQKQGKSPQLLVYNAKTLADGVPSRFSGSGSGTQYSLKINSLQPEDFGSYYCQHFWSTLTFGAGTKLELKR
# notes: Mouse hybridoma antibody; also called anti-CAPRIN-1 mouse monoclonal antibody #12
# B4: mouse monoclonal antibody #13 (antibody)
# chain 1: EVQLHQFGAELVKPGASVKISCKASGYTFTDYNMDWVKQSHGKSLEWIGDINPNYDSTSYNQKFKGKATLTVDKSSSTAYMELRSLTSEDTAVYYCARSRSYDYEGFAYWGQGTLVTVSAAKTTPPSVY
# chain 2: AVLRCSRGLLVIWISDIQLTQSPSSLAVTAGEKVTMSCKSSQSLLWSVNQKNYLSWYQQKQRQPPKLLIYGASIRESWVPDRFTGSGSGTDFTLTISNVHAEDLAVYYCQHNHGSFLPSRSEQVPSWRSNNR
# B5: mouse-chicken chimeric antibody #1 (antibody, mouse IgG1, V domains shown)
# VH: AVTLDESGGGLQMSRGGLSLVCKASGFDFSSYQMNWIRQAPGKGLEFVAAINKFGNSTGHGAAVKGRVTISRDNGQSTVRLQLNNLRAEDTAIYFCTKHAYGYCGSGTWCAAGEIDAWGHGTEVIVSS
# VL: QAASTQPSSVSANPGETVEITCSGGGSYSYGWFQQKSPGSAPVTVIYYNNKRPSDIPSRFSGSKSGSTGTLTITGVQADDEAVYYCGSGDSTDTAVFGAGTTLTVLG
# notes: from CHO-K1 culture supernatant; also called anti-CAPRIN-1 mouse-chicken chimeric antibody #1
# B6: mouse-chicken chimeric antibody #2 (antibody, mouse IgG1, V domains shown)
# VH: AVTLDESGGGLQTPGGGLSLVCKASGFTFSSFDMGWVRQAPGKGLEFVAQINDAGSRTWYATAVKGRATISRDNGQTTVRLQLNNLRAEDTGTYYCTRGSGYVGAGAIDAWGHGTEVIVS
# VL: AALTQPSSVSANPGETVKITCSGGSGYYGWYQQQKSPGSAPVTVIYQNDKRPSDIPSRFSGSGSGSTNTLTITGVQAEDEAVYFCGRYDSTDSGIFGAGTTLTVL
# notes: also called anti-CAPRIN-1 mouse-chicken chimeric antibody #2
# B7: mouse-chicken chimeric antibody #3 (antibody, mouse IgG1, V domains shown)
# VH: AVTLDESGGGLQTPGGALSLVCKASGFTFSGYDMLWVRQAPGKGLEWVAGIGSTGGGTDYGAAVKGRATISRDNGQSTVRLQLNNLRAEDTATYYCAKVAGGCNSGYCRDSPGSIDAWGHGTEVIVS
# VL: AVTQQPASVSANPGETVKITCSGGGSRNYYGWYQQKSPGSVPVTVIYYDDQRPSNIPSRFSGALSGSTSTLTITGVQADDEAVYFCGSADSNTYEGSFGAGTTLTVL
# notes: also called anti-CAPRIN-1 mouse-chicken chimeric antibody #3
# B8: human-chicken chimeric antibody #2 (antibody, human IgG1, kappa, V domains shown)
# VH: AVTLDESGGGLQTPGGGLSLVCKASGFTFSSFDMGWVRQAPGKGLEFVAQINDAGSRTWYATAVKGRATISRDNGQTTVRLQLNNLRAEDTGTYYCTRGSGYVGAGAIDAWGHGTEVIVSA
# VL: AALTQPSSVSANPGETVKITCSGGSGYYGWYQQQKSPGSAPVTVIYQNDKRPSDIPSRFSGSGSGSTNTLTITGVQAEDEAVYFCGRYDSTDSGIFGAGTTLTVLT
# Molecular target: T1, CAPRIN-1 protein expressed on the cell …
# Test: flow cytometry on Capan-2, MIAPaCa-2, PANC-1 and BxPC-3 cells, vs isotype control
# Procedure: Next, four pancreatic cancer cell lines (Capan-2, MIAPaCa-2, PANC-1, and BxPC-3) confirmed to have CAPRIN-1 gene expression were examined for their expression of CAPRIN-1 protein on the cell surface. 10⁶ cells of each cell line were centrifuged in each 1.5-ml microcentrifuge tube. The cancer cell surface-reactive anti-CAPRIN-1 mouse monoclonal antibodies #1 to #22 prepared in Example 4 and the culture supernatant (100 μl) containing the anti-CAPRIN-1 mouse-chicken chimeric antibody #1, #2, or #3 prepared in the preceding paragraph (2) were separately added to the tubes and left standing for 1 hour on ice. After washing with PBS, the cells were suspended in FITC-labeled goat anti-mouse IgG antibodies (manufactured by Invitrogen Corp.) diluted 500-fold with PBS containing 0.1% FBS and left standing for 1 hour on ice. After washing with PBS, the fluorescence intensity was measured using FACSCalibur (Becton, Dickinson and Company). On the other hand, the same operation as above was performed using isotype control antibodies, instead of the anti-CAPRIN-1 mouse monoclonal antibodies #1 to #22 and the culture supernatant containing the mouse-chicken chimeric antibody #1, #2, or #3, to prepare a control. As a result, all the cells supplemented with any of the monoclonal antibodies #1 to #22 and the mouse-chicken chimeric antibodies #1, #2, and #3 had fluorescence intensity at least 20% stronger than that of the control. […] The above rate of enhancement in fluorescence intensity was indicated by the rate of increase in mean fluorescence intensity (MFI) in each cell line and calculated according to the following expression: […]
row,Binder,rate of increase in mean fluorescence intensity [%]
1,B1,≥ 20
2,B2,≥ 20
3,B3,≥ 20
4,B4,≥ 20
5,B5,≥ 20
6,B6,≥ 20
7,B7,≥ 20

# Molecular target: T1, CAPRIN-1 protein expressed on the cell …
# Test: cell-based or functional assay
row,Binder,cytotoxic activity (ADCC) against MIAPaCa-2 and Capan-2 [%]
1,B1,≥ 10
2,B2,≥ 10
3,B3,≥ 10
4,B4,≥ 10
5,B8,≥ 10
